Experimental data: patent US20220017591A1 (AstraZeneca / MedImmune, published 2022)
One block for each binder: values may come before it.

Key:
Assay in all cases: cell-based or functional assay
[1] = biological target: T1, mouse RXFP1 (mouse, UniProt Q6R6I7 1-758)
T1 sequence (looked up): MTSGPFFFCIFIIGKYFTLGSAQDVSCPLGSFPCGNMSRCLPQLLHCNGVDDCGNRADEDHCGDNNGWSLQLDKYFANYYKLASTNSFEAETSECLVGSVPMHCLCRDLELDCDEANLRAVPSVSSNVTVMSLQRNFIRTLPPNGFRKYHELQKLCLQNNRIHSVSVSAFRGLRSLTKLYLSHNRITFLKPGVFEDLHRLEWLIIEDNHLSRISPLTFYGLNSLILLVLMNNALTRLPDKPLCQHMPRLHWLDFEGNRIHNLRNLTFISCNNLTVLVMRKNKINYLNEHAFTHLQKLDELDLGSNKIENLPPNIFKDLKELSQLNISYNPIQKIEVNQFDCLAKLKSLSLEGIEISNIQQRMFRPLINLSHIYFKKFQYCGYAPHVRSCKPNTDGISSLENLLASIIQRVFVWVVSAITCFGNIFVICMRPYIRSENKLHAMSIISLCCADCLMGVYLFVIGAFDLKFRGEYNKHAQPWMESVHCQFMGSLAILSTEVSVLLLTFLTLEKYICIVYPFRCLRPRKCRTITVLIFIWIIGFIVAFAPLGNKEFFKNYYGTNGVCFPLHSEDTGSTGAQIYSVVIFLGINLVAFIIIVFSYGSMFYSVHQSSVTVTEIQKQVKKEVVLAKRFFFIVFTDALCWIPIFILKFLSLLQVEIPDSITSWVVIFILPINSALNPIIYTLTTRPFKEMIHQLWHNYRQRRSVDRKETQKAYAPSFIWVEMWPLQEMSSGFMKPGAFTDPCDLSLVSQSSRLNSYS

[2] = biological target: T2, human RXFP1 (human, UniProt Q9HBX9 1-757)
T2 sequence (looked up): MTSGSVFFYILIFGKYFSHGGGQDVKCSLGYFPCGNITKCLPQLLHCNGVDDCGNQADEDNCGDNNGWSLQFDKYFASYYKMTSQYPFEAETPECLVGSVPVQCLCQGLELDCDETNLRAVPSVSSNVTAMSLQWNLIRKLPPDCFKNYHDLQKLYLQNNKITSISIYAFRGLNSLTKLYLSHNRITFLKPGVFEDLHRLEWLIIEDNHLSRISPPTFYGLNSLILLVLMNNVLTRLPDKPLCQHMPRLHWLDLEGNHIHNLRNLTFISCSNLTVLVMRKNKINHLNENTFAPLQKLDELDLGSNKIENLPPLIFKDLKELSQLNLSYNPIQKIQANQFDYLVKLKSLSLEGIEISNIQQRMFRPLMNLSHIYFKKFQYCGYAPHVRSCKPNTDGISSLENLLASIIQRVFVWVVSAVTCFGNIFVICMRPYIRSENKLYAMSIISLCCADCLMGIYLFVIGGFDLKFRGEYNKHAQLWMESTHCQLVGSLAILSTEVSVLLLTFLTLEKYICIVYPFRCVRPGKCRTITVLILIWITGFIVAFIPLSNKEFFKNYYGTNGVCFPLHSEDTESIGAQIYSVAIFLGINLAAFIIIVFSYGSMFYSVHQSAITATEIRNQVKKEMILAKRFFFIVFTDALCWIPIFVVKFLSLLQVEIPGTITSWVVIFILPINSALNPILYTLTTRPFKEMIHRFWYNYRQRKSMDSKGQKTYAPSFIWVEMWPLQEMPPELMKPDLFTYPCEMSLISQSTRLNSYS

[3] = biological target: human RXFP2 (human, UniProt Q8WXD0 1-754)
[4] = biological target: T2, human RXFP1; remark: listed apart in the source

human RXFP2, sequence (Q8WXD0 whole entry): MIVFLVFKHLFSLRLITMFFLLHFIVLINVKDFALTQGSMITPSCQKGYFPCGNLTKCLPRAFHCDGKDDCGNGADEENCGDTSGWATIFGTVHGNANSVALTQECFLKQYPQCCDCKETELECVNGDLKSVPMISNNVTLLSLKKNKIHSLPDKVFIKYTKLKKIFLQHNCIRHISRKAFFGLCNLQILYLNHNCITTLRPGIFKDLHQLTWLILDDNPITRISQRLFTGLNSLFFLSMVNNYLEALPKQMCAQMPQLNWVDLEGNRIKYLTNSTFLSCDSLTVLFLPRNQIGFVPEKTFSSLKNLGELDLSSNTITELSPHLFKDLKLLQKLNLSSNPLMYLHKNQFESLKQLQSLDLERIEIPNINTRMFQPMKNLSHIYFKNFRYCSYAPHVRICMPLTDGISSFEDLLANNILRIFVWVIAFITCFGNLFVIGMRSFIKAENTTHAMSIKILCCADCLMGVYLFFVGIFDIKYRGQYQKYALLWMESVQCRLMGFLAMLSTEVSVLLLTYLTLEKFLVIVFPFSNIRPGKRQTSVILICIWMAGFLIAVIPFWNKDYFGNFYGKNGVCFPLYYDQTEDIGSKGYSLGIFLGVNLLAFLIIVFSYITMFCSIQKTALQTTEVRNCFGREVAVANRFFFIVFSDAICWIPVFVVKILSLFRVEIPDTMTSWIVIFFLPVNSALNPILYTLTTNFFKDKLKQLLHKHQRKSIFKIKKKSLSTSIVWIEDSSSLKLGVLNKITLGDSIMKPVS

EC50 mRXFP1 (M), cAMP assay [1]: 1.74e-11 M
EC50 hRXFP1 (M), cAMP assay [2]: 1.06e-11 M
EC50 hRXFP2 (M), cAMP assay [3]: 1.61e-08 M
biological activity (EC50), cAMP assay [4]: ~10 pM
B1: RELAX0117 (Fc fusion)
chain 1: QLYSALANKCCHVGCTKRSLARFCAAAGGGGSGGGGSGGGGSGGGGSACPPCPAPEFEGGPSVFLFPPKPKDTLMISRTPEVTCVVVDVSHEDPEVKFNWYVDGVEVHNAKTKPREEQYNSTYRVVSVLTVLHQDWLNGKEYKCKVSNKALPASIEKTISKAKGQPREPQVYTLPPCREEMTKNQVSLWCLVKGFYPSDIAVEWESNGQPENNYKTTPPVLDSDGSFFLYSKLTVDKSRWQQGNVFSCSVMHEALHNHYTQKSLSLSPGGGGGSGGGGSGGGGSGGGGGSQLYSALANKCCHVGCTKRSLARFC
chain 2: SWMEEVIKLCGRELVRAQIAICGMSTWSAAAGGGGSGGGGSGGGGSGGGGSACPPCPAPEFEGGPSVFLFPPKPKDTLMISRTPEVTCVVVDVSHEDPEVKFNWYVDGVEVHNAKTKPREEQYNSTYRVVSVLTVLHQDWLNGKEYKCKVSNKALPASIEKTISKAKGQPREPQVCTLPPSREEMTKNQVSLSCAVKGFYPSDIAVEWESNGQPENNYKTTPPVLDSDGSFFLVSKLTVDKSRWQQGNVFSCSVMHEALHNHYTQKSLSLSPGGGGGSGGGGSGGGGSGGGGGSSWMEEVIKLCGRELVRAQIAICGMSTWS

EC50 mRXFP1 (M), cAMP assay [1]: 4.14e-11 M
EC50 hRXFP1 (M), cAMP assay [2]: 8.27e-11 M
biological activity (EC50), cAMP assay [4]: ~80 pM
B2: RELAX0021 (Fc fusion)
chain 1: GGAGGACPPCPAPEFEGGPSVFLFPPKPKDTLMISRTPEVTCVVVDVSHEDPEVKFNWYVDGVEVHNAKTKPREEQYNSTYRVVSVLTVLHQDWLNGKEYKCKVSNKALPASIEKTISKAKGQPREPQVYTLPPSREEMTKNQVSLWCLVKGFYPSDIAVEWESNGQPENNYKTTPPVLDSDGSFFLYSKLTVDKSRWQQGNVFSCSVMHEALHNHYTQKSLSLSPGGGGGSGGGGSGGGGSGGGGGSQLYSALANKCCHVGCTKRSLARFC
chain 2: GGAGGACPPCPAPEFEGGPSVFLFPPKPKDTLMISRTPEVTCVVVDVSHEDPEVKFNWYVDGVEVHNAKTKPREEQYNSTYRVVSVLTVLHQDWLNGKEYKCKVSNKALPASIEKTISKAKGQPREPQVYTLPPSREEMTKNQVSLSCAVKGFYPSDIAVEWESNGQPENNYKTTPPVLDSDGSFFLVSKLTVDKSRWQQGNVFSCSVMHEALHNHYTQKSLSLSPGGGGGSGGGGSGGGGSGGGGGSSWMEEVIKLCGRELVRAQIAICGMSTWS
